Data on 5 molecules can be found in PMC7031059.

Sequences and labels used below:
B1: 5T2 (dsDNA)
DNA 1: CATGTGTCATGGTGGGCTCAATCAAGTGGC
DNA 2: GCCACTTGATTGAGCCCACCATGACACATG
B2: ABF2-F (PpABF2 promoter TBS) (dsDNA)
DNA 1: ACCTAACCTAAGTGGGACCATGCCCTTTTT
DNA 2: AAAAAGGGCATGGTCCCACTTAGGTTAGGT
B3: 6mT (GGGCCC to AAATTT) (dsDNA)
DNA 1: GGTAAATTTAATCAAGTGACATGACAGCGA
DNA 2: TCGCTGTCATGTCACTTGATTAAATTTACC
B4: 6T (PpDAM6 promoter site-II) (dsDNA)
DNA 1: GGTGGGCCCAATCAAGTGACATGACAGCGA
DNA 2: TCGCTGTCATGTCACTTGATTGGGCCCACC
B5: 5mT2 (GGG to TTT) (dsDNA)
DNA 1: B1 DNA 1 with G14T, G15T, G16T
DNA 2: B1 DNA 2 with C15A, C16A, C17A

Where a chain is given by its changes, count along the chain named.

The data set concerns the target PpTCP20-GST (Prunus persica var. nectarina cv. …, UniProt A0A251Q833 1-310). Nature of the data set: EMSA. A general note: A gel shift assay detects complexes by their altered migration in electrophoresis.
For the molecule B1, the binding result is listed as “binds”.
To B2 belongs “binds”.
Regarding B3, the binding result is recorded as “no binding”.
As for B4, the binding result is given as “binds”.
Take B5: the binding result is recorded as “no binding”.
